Measured values from EP4671273A1 (Anaveon AG, dated 2025).

How the values were obtained:
[1] = target: T1, human IL-21 receptor (IL-21R) on cells (human, UniProt Q9HBE5 20-538; P31785 23-369); assay: cell-based or functional assay
[2] = target: T1, human IL-21 receptor (IL-21R) on cells; assay: cell-based or functional assay; remark: listed apart in the source
[3] = target: recombinant human IL-21 (rhIL-21) (human, UniProt Q9HBE4 30-162, limits assumed); assay: cell-based or functional assay
[4] = target: T2, recombinant IL-21Ra-Fc (AcroBiosystems) (human, UniProt Q9HBE5 20-232); assay: SPR, not shown
T2 construct: bought; also called rIL-21Rα; rIL-21Ra-Fc; not shown: Fc of the bought reagent, not described
T2 sequence (Q9HBE5 20-232): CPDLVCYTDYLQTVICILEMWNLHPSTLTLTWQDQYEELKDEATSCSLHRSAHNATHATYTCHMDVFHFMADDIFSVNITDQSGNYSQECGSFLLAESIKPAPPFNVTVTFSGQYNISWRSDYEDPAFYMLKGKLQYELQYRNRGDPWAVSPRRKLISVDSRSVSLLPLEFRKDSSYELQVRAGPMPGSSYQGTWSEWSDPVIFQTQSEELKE

recombinant human IL-21 (rhIL-21), sequence (Q9HBE4 30-162 limits assumed): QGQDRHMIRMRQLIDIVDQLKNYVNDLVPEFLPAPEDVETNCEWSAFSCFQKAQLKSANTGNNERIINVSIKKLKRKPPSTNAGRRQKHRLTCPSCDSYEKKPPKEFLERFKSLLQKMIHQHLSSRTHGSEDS
T1 sequence (Q9HBE5 20-538, chain 1 of 2): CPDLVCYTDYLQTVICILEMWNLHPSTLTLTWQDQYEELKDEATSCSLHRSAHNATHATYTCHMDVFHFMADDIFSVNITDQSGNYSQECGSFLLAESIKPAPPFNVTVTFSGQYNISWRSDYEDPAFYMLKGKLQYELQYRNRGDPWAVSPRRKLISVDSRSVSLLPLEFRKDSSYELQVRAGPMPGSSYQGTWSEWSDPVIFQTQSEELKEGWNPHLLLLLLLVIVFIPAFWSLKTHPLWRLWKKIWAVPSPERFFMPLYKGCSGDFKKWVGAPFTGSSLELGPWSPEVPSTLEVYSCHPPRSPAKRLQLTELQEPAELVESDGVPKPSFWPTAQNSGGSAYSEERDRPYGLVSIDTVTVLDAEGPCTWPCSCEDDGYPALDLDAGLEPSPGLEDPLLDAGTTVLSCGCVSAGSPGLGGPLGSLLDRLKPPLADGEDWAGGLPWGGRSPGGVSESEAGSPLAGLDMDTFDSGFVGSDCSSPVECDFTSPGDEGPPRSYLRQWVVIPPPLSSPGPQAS
T1 sequence (P31785 23-369, chain 2 of 2): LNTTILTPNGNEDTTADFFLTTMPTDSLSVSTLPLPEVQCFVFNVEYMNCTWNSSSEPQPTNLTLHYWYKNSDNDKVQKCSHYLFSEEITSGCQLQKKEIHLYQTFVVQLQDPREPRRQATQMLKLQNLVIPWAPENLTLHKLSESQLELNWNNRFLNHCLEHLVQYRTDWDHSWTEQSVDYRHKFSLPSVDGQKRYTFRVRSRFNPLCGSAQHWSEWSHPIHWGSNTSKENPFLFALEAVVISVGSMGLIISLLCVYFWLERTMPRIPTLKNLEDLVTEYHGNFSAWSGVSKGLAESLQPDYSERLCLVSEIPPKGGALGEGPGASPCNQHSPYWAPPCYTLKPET

Row | EC50B, pSTAT3+ Jurkat PD-1 cells, PD-1 blocked [1] [nM] | EC50NB, pSTAT3+ Jurkat PD-1 cells [1] [pM] | Δ [2] | % pSTAT3+ Jurkat cells, 0.1 nM rhIL-21 + 0 nM antibody [3] [%] | % pSTAT3+ Jurkat cells, 0.1 nM rhIL-21 + 0.1012 nM antibody [3] [%] | % pSTAT3+ Jurkat cells, 0.1 nM rhIL-21 + 0.1602 nM antibody [3] [%] | % pSTAT3+ Jurkat cells, 0.1 nM rhIL-21 + 0.2536 nM antibody [3] [%] | % pSTAT3+ Jurkat cells, 0.1 nM rhIL-21 + 0.4015 nM antibody [3] [%] | % pSTAT3+ Jurkat cells, 0.1 nM rhIL-21 + 0.6355 nM antibody [3] [%] | % pSTAT3+ Jurkat cells, 0.1 nM rhIL-21 + 1.006 nM antibody [3] [%] | % pSTAT3+ Jurkat cells, 0.1 nM rhIL-21 + 1.5925 nM antibody [3] [%] | % pSTAT3+ Jurkat cells, 0.1 nM rhIL-21 + 2.5209 nM antibody [3] [%] | % pSTAT3+ Jurkat cells, 0.1 nM rhIL-21 + 3.9906 nM antibody [3] [%] | % pSTAT3+ Jurkat cells, 0.1 nM rhIL-21 + 6.3171 nM antibody [3] [%] | % pSTAT3+ Jurkat cells, 0.1 nM rhIL-21 + 10 nM antibody [3] [%] | binding result [4] | Binder
1 | 0.951 | 4 | 2.96 | – | – | – | – | – | – | – | – | – | – | – | – | – | TVU155 (bispecific antibody, human IgG1, kappa, lambda, L234A L235A) heavy 1: EVQLLESGGGLVQPGGSLRLSCAASGFTFSINAMTWVRQAPGKGLEWVSTISGSGFSTYYADSLKGRFTISRDNSKNTLYLQMNSLRAEDTAVYYCAKEVYGDYWGQGTLVTVSSASTKGPSVFPLAPSSKSTSGGTAALGCLVKDYFPEPVTVSWNSGALTSGVHTFPAVLQSSGLYSLSSVVTVPSSSLGTQTYICNVNHKPSNTKVDKRVEPKSCDKTHTCPPCPAPEAAGGPSVFLFPPKPKDTLMISRTPEVTCVVVDVSHEDPEVKFNWYVDGVEVHNAKTKPREEQYNSTYRVVSVLTVLHQDWLNGKEYKCKVSNKALAAPIEKTISKAKGQPREPQVCTLPPSREEMTKNQVSLSCAVKGFYPSDIAVEWESNGQPENNYKTTPPVLDSDGSFFLVSKLTVDKSRWQQGNVFSCSVMHEALHNHYTQKSLSLSPGK light 1: not shown heavy 2: QVQLQESGPGLVKPSETLSLTCTVSGGSISSDYWGWIRQPPGKGLEWIGYISYRGSTNYNPSLKSRVTISVDTSRNQFSLKLSSVTAADTAVYYCARSAGVTDFDAWGQGTLVTVSSASTKGPSVFPLAPSSKSTSGGTAALGCLVKDYFPEPVTVSWNSGALTSGVHTFPAVLQSSGLYSLSSVVTVPSSSLGTQTYICNVNHKPSNTKVDKRVEPKSCDKTHTCPPCPAPEAAGGPSVFLFPPKPKDTLMISRTPEVTCVVVDVSHEDPEVKFNWYVDGVEVHNAKTKPREEQYNSTYRVVSVLTVLHQDWLNGKEYKCKVSNKALAAPIEKTISKAKGQPREPQVYTLPPCREEMTKNQVSLWCLVKGFYPSDIAVEWESNGQPENNYKTTPPVLDSDGSFFLYSKLTVDKSRWQQGNVFSCSVMHEALHNHYTQKSLSLSPGK light 2: not shown
2 | 1.52 | 3 | 8.18 | – | – | – | – | – | – | – | – | – | – | – | – | – | WBL338 (bispecific antibody) heavy 1: EVQLLESGGGLVQPGGSLRLSCAASGFTFSINAMTWVRQAPGKGLEWVSTISGSGFSTYYADSLKGRFTISRDNSKNTLYLQMNSLRAEDTAVYYCAKEVYGDYWGQGTLVTVSSASTKGPSVFPLAPSSKSTSGGTAALGCLVKDYFPEPVTVSWNSGALTSGVHTFPAVLQSSGLYSLSSVVTVPSSSLGTQTYICNVNHKPSNTKVDKRVEPKSCDKTHTCPPCPAPEAAGGPSVFLFPPKPKDTLMISRTPEVTCVVVDVSHEDPEVKFNWYVDGVEVHNAKTKPREEQYNSTYRVVSVLTVLHQDWLNGKEYKCKVSNKALAAPIEKTISKAKGQPREPQVCTLPPSREEMTKNQVSLSCAVKGFYPSDIAVEWESNGQPENNYKTTPPVLDSDGSFFLVSKLTVDKSRWQQGNVFSCSVMHEALHNHYTQKSLSLSPGK light 1: not shown heavy 2: QVQLQESGPGLVKPSETLSLTCTVSGGSISSDYWGWIRQPPGKGLEWIGYISYRGSTNYNPSLKSRVTISVDTSRNQFSLKLSSVTAADTAVYYCARSAGVTDFDWWGQGTLVTVSSASTKGPSVFPLAPSSKSTSGGTAALGCLVKDYFPEPVTVSWNSGALTSGVHTFPAVLQSSGLYSLSSVVTVPSSSLGTQTYICNVNHKPSNTKVDKRVEPKSCDKTHTCPPCPAPEAAGGPSVFLFPPKPKDTLMISRTPEVTCVVVDVSHEDPEVKFNWYVDGVEVHNAKTKPREEQYNSTYRVVSVLTVLHQDWLNGKEYKCKVSNKALAAPIEKTISKAKGQPREPQVYTLPPCREEMTKNQVSLWCLVKGFYPSDIAVEWESNGQPENNYKTTPPVLDSDGSFFLYSKLTVDKSRWQQGNVFSCSVMHEALHNHYTQKSLSLSPGK light 2: not shown
3 | – | – | – | 82.7 | 59.4 | 6.07 | 4.93 | 4.39 | 5.32 | 5.9 | 4.78 | 5.16 | 4.64 | 3.99 | 3.83 | binds | FYP014 (antibody, human IgG1, V domains shown, human IgG1; also called EP3103813A1 clone 366.328.10.63) VH: EVQLVESGGGLVKPGGSLRLSCAASGFIFSSYSMNWVRQAPGKGLEWVSSITSGSYYIHYADSVKGRFTISRDNAKNSLYLQMNSLRAEDTAVYYCVRERGWGYYGMDVWGQGTTVTVSS VL: AIQLTQSPSSLSASVGDRVTITCRASQDIDSALAWYQQKPGKAPKILIHDASSLESGVPSRFSGSGSGTDFTLTISSLQPEDFATYYCQQFNSYPYTFGQGTKLEIK
